Source: patent US20230265146A1
Values joined by “and” are separate entries in the source; they are usually repeats but may differ in a detail not shown here. Identical values can stand only once.

Target: human IL-12 receptor on HEK-Blue IL-12 reporter cells (human) (UniProt P42701)
Sequence (Q99665 24-862, chain 2 of 2, other chains not shown): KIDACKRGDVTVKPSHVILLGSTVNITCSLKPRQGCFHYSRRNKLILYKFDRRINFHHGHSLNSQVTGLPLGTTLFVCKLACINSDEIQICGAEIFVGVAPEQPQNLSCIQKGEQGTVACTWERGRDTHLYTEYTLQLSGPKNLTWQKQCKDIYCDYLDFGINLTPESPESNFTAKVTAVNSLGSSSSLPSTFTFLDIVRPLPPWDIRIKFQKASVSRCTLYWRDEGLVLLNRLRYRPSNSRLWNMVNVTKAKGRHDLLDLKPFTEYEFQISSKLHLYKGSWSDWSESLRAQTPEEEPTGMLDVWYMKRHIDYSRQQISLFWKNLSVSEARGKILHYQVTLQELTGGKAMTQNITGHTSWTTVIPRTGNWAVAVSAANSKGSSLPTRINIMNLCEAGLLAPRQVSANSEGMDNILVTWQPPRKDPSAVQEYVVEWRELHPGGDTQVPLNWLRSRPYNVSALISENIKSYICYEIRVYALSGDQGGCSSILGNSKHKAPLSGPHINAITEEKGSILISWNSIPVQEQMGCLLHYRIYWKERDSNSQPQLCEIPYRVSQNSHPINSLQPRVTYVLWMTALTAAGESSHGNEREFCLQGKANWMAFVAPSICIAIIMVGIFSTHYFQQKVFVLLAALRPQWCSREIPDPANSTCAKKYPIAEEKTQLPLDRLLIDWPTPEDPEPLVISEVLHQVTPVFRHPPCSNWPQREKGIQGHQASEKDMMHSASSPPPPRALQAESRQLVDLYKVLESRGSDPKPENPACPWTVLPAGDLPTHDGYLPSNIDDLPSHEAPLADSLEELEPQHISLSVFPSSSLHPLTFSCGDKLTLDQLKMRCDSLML

IL12 (ligand)
EC50 (read off the curve): 0.09 nM and 0.05 nM
